Laboratory results published in the Human Domainome abundance scans (Beltran et al. 2025).

B1: Ankyrin repeat and SOCS box protein 14, residues 532 to 572; numbered along this chain, A6NK59 (parent)
chain: RSLKHLCRLKIRKCMGRLHLRCPVFMSFLPLPNRLKAYVLY

Variants of: B1
Experiment: abundance fitness (aPCA) (normalised: wild type 0, dead -1); higher = more abundant; growth selection in yeast, the domain comes from the species named
Conditions: Homo sapiens

Abundance fitness of substitutions, site by site:
L18: V -0.392, A -0.544, S -0.735, I 0.248, N -1.07, Q -0.732, G -0.874, C -0.284, K -0.774, E -0.748, F 0.006, M -0.071, R -0.894, T -0.571
F25: P 0.074, C -0.449, H -0.447, Q -0.123, D 0.197, G -0.048, T -0.243, L 0.19, K 0.089, R -0.116, S -0.095, M -0.042, I 0.316, A -0.178, V 0.033
C22: P -0.086, H -0.052, R -0.282, E -0.455, S -0.247, D -1.02, Y -0.139, M 0.162, W 0.218, G -0.339, V 0.064, N -0.719, Q -0.521, L 0.243, I 0.178, F 0.057, K -0.519
F28: C -0.198, A -0.228
V24: P 0.137, E 0.347, Y -0.166, T 0.176, L -0.081, F 0.469, S 0.308, G 0.319, D 0.472, N 0.316, M -0.217, W 0.233, R 0.352, K 0.449, C 0.251, Q 0.242
L20: F -0.026, W -0.285, T 0.069, C -0.296, G -0.089, D 0.3, A 0.083, M -0.098, V -0.233, E 0.249, Q -0.087, R -0.348, K 0.101, S -0.093, I -0.308, Y -0.655
R17: W 0.722, Y 0.506, V 0.213
H19: R 0.018, E -0.24, K 0.141, Q -0.004, P -0.326, F -0.097, D -0.272, V -0.111, T -0.22, M -0.183, W -0.053, L 0.069, G 0.024, A 0.171, C -0.236, Y -0.336
P23: E 0.36, T 0.336, K 0.524, M 0.334, A 0.321, N -0.049, Q 0.407, G 0.198, W 0.321, Y 0.283, V 0.384, H -0.306, L 0.494, S 0.273, C 0.28, R 0.357, D 0.315, F 0.078
S27: D -0.054, E -0.006, M -0.892, C -0.536, A -0.059, T -0.247, K 0.078, Q -0.085, P -0.386, L -1.09, W -0.156, Y -1.05, V -0.709, R 0.042, N 0.019, G -0.075
R21: P -0.322, T -0.178, D -0.143, Q -0.623, H -0.295, G -0.061, F -0.102, I 0.207, W 0.275, N 0.096, A -0.076, M 0.129, C -0.253, E -0.508, L 0.196, K -0.029, V 0.009, S -0.147
M26: I -0.038, A -0.08, P -0.002, T -0.002, W 0.118, H 0.113, C -0.013, R -0.047, S 0.018, L 0.078, Q -0.154, G 0.072, K -0.026, E 0.194, D -0.004, Y -0.207
